Measurements: IntAct's records for PubMed 17377532

B1: Forkhead box protein P3 (Mus musculus), Q99JB6 (parent)
chain: MPNPRPAKPMAPSLALGPSPGVLPSWKTAPKGSELLGTRGSGGPFQGRDLRSGAHTSSSLNPLPPSQLQLPTVPLVMVAPSGARLGPSPHLQALLQDRPHFMHQLSTVDAHAQTPVLQVRPLDNPAMISLPPPSAATGVFSLKARPGLPPGINVASLEWVSREPALLCTFPRSGTPRKDSNLLAAPQGSYPLLANGVCKWPGCEKVFEEPEEFLKHCQADHLLDEKGKAQCLLQREVVQSLEQQLELEKEKLGAMQAHLAGKMALAKAPSVASMDKSSCCIVATSTQGSVLPAWSAPREAPDGGLFAVRRHLWGSHGNSSFPEFFHNMDYFKYHNMRPPFTYATLIRWAILEAPERQRTLNEIYHWFTRMFAYFRNHPATWKNAIRHNLSLHKCFVRVESEKGAVWTVDEFEFRKKRSQRPNKCSNPCP

Variants of: B1
Settings: with runx1_mouse Runx1, Q03347
Sequence of runx1_mouse Runx1, Q03347 (Q03347 whole entry): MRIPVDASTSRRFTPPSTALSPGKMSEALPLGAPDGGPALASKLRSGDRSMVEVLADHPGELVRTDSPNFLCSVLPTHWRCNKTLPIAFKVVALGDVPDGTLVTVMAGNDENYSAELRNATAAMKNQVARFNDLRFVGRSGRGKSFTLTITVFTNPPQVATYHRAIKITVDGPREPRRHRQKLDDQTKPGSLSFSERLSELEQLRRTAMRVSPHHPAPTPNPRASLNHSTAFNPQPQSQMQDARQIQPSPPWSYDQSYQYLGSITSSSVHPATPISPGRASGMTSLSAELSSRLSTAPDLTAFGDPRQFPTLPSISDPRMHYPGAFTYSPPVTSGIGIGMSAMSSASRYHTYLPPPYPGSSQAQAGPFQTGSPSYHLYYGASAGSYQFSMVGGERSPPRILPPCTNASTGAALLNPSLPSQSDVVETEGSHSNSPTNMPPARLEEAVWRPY

Variant	effect of a mutation on the interaction
D329V;Y330H	decreasing interaction strength
D329V;Y330H;K332L	disrupting interaction strength
